# Assay results published in paper PMC4095729 (Alzheimer's Research & Therapy, 2014).
# T1: Aβ1-7 peptide (Homo sapiens (deposited entity))
# T1 construct: amyloid beta peptide (Aβ), cut from amyloid precursor protein (APP), residues 1-7; Additional file 1 names the peptide Aβ1-6; also called amyloid-β1-7; Aβ residues 1–7
# T1 chain: DAEFRHD
# Target: T1, Aβ1-7 peptide
# Assay: crystal structure; 3D6 Fab co-crystallised with Aβ1-7 or Aβ1-40 peptide, crystals grown at 22 °C; the Aβ1-40 crystals in 200 mM Zn2+; data at 100 K
# Settings: both partners purified
binder,measurement,value
"Recombinant 3D6 Fab (Fab, V domains shown, also called Fab 3D6) VH: EVKLVESGGGLVKPGASLKLSCAASGFTFSNYGMSWVRQNSDKRLEWVASIRSGGGRTYYSDNVKGRFTISRENAKNTLYLQMSSLKSEDTALYYCVRYDHYSGSSDYWGQGTTVTVSS VL: not shown",binding result,binds
